# Read-outs that look alike come from different tables or passages of the source.
# Legend:
# [1] = target: T1, CCR2 (Homo sapiens, UniProt P41597); experiment: Gαi activation assay (TRUPATH BRET), HEK293T cells transfected with CCR2 plus pcDNA3 (CCR2 alone); format: cell-based
# Procedure: (§1) HEK293T cells were plated in a 6-well plate and transfected with 0.2 μg each of Gαi1-Rluc8, Gβ3 and Gγ9-GFP2 (Trupath) together with 0.2 μg of mouse or human CCR2 with either pcDNA3.1 or α1b-AR. One day after transfection, cells were trypsinized and replated to 96-well poly-L lysine precoated plates. After overnight incubation, cells were replaced with 0.1% glucose/PBS. Prolume Purple (NanoLight Tech.) or coelenterazine 400a in a final concentration of 5 μM were added in experiments with human or mouse CCR2, respectively, and incubated at room temperature for 3 min. Ligands at various concentrations were added to cells and incubated at room temperature for 5 min before luminescence was measured at 410 nm and 515 nm. […] The BRET changes were calculated by subtracting the BRET signal of untreated cells.
# [2] = target: T2, α1b-AR:CCR2 heteromer (Homo sapiens, UniProt P35368+P41597); experiment: Gαi activation assay (TRUPATH BRET), HEK293T cells transfected with CCR2 plus α1b-AR; format: cell-based
# T2 construct: expressed in transfected cells; host or cells: HEK293T
# Procedure: as §1
# [3] = target: T3, mouse CCR2 (Mus musculus, UniProt P51683); experiment: Gαi activation assay (TRUPATH BRET), HEK293T cells transfected with mouse CCR2; format: cell-based; conditions: FIG. 9A
# T3 construct: expressed in transfected cells; host or cells: HEK293T
# Procedure: as §1
# [4] = test system: THP-1 cells (CCR2-mediated Gαi signaling); experiment: Cyclic AMP measurement in forskolin-stimulated THP-1 cells; format: cell-based, human; conditions: for % inhibition of cAMP production by CCL2: 100 nM CCL2, FIG. 2F
# Procedure: (§2) Cyclic AMP amounts were measured using the cAMP complete enzyme immunoassay kit, acetylated format (Enzo Life Sciences). 4×10^5 cells were incubated with forskolin/isobutylmethylxanthine (10 μM/0.5 mM final concentrations) in 0.1% BSA/10 mM Hepes-buffered RPMI and treated with CCL2 in the presence or absence of 1 μM PE, 1 μM PT or 100 nM NE at 37° C. for 15 min. The cells were lysed by incubating with 0.1 M HCl at room temperature for 20 min. The cAMP amounts in the lysate supernatant were measured following the manufacturer's instructions.
# [5] = test system: THP-1_ADRA1B^KO cells; experiment: Cyclic AMP measurement in forskolin-stimulated THP-1_ADRA1B^KO cells; format: cell-based, human; conditions: forskolin-stimulated THP-1_ADRA1B^KO cells; 100 nM CCL2, 15 min at 37° C.; FIG. 2B
# Procedure: as §2
# [6] = target: T1, CCR2; experiment: BRET assay for β-arrestin recruitment, HEK293T with CCR2-Rluc and β-arrestin-YFP without α1b-AR; format: cell-based; conditions: FIG. 5C, read-out: EC50 of CCL2, BRET between CCR2-Rluc and β-arrestin-YFP
# Procedure: (§3) β-arrestin recruitment was measured by BRET, as described (Armando, 2014; Berchiche, 2011). In brief, HEK293T cells were plated in a 6-well plate and transfected with 0.1 μg of CCR2-RluII and 1.9 μg β-arrestin-YFP with 0.1 μg pcDNA3.1 or α1b-AR. One day after transfection, cells were re-plated into 96-well poly-L lysine precoated plates. After overnight incubation, cells were replaced with 0.1% glucose/PBS. Coelenterazine H in a final concentration of 5 μM was added to cells and incubated at room temperature for 3 min. […] The BRET changes were calculated by subtracting the BRET signal of untreated cells.
# [7] = target: T1, CCR2; conditions: higher for CCR2; cited from earlier work
# [8] = target: T1, CCR2; experiment: Radioligand competition binding assay, [125I]-CCL2, crude membrane preparations of THP-1 cells; set-up: host or cells: THP-1; conditions: THP-1 cells pretreated with vehicle; mean±SE, n=3; read-out: IC50 of CCL2 to displace [125I]-CCL2
# Procedure: Cells were then centrifuged at 30,000× g (20 min, 4° C.), the supernatant was discarded, and pelleted cell fragments were snap-frozen in liquid nitrogen. The cell pellets were resuspended in 50 mM HEPES, 5 mM MgCl2, 1 mM CaCl2, 0.1% w/v BSA, pH 7.2, and then incubated with 50 pM [^125I]-CCL2, 1× Xpert Protease Inhibitor Cocktail (GenDEPOT), and varying concentrations of CCL2 for 1.5 h at 25° C. Bound [^125I]-CCL2 was collected via vacuum filtration using buffer containing 10 mM HEPES (pH 7.4) and 0.5 M NaCl at 4° C., and a cell harvester (Brandel) equipped with glass fiber filters. Radioactivity was measured in a gamma counter at 70% efficiency.
# [9] = target: T4, CCR2:α1b-AR heteromers (Homo sapiens, UniProt P35368+P41597); experiment: BRET assay for β-arrestin recruitment, HEK293T co-expressing CCR2-Rluc, β-arrestin-YFP and α1b-AR; format: cell-based; set-up: expressed in transfected cells; conditions: CCL2 plus vehicle; FIG. 5D
# Procedure: as §3
# [10] = target: T4, CCR2:α1b-AR heteromers; experiment: PRESTO-Tango β-arrestin recruitment assay, HTLA cells with CCR2-Tango plus α1b-AR; format: cell-based; set-up: Tango module of the TANGO vector (C); expressed in transfected cells; host or cells: HTLA
# Procedure: The assays were performed as described previously (Albee, 2017; Gao, 2022; Albee, 2018; Eby, 2017; Cheng, 2017). HTLA cells were seeded in a 6-well plate and transfected with 750 ng FLAG-CCR2-Tango together with 750 ng pcDNA3.1 or HA-α1b-AR using TransIT-2020 Transfection Reagent. The next day, cells (75,000 cells/well) were plated onto poly-L-Lysine pre-coated 96-well plates and allowed to attach to the plate surface for at least 4 hours prior to treatment. Cells were treated with receptor ligands at the concentrations indicated in the figure legends for 2 h and then replaced with fresh full medium and incubated overnight at 37° C., 5% CO2 in a humidified environment. The following morning, medium was replaced with a 100 μL 1:10 mixture of Bright-Glo (Promega) and PBS. Plates were then incubated at room temperature for 10 min before measuring luminescence on a Biotek Synergy II plate reader. Relative luminescence units (RLU) are expressed as fold changes of RLU vs unstimulated cells.
# T2 sequence (P41597 whole entry): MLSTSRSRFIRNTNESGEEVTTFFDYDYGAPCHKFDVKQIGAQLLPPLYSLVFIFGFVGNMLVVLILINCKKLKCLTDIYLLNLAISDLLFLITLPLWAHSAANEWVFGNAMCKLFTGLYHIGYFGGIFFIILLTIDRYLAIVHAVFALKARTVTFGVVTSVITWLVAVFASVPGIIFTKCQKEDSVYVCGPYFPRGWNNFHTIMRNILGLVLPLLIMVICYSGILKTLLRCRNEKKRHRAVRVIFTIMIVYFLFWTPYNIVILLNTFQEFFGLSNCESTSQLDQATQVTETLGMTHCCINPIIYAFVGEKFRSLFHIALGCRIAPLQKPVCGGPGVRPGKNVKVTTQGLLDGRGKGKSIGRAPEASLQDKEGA
# T2 sequence (P35368 whole entry): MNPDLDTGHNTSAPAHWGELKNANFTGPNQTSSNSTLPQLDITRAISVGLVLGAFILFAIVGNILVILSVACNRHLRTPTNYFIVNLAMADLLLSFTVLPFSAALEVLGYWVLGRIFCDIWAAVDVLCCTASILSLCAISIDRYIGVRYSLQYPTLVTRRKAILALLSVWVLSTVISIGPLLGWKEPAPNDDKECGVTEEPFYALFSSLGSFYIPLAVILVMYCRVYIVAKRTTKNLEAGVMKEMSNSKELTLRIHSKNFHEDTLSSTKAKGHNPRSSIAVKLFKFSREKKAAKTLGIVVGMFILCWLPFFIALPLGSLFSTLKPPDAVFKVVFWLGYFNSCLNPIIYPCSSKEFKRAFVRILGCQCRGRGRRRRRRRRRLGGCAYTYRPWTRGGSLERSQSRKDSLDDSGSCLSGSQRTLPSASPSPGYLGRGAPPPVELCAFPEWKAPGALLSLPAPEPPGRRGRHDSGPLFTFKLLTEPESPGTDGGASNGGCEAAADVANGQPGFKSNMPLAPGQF
# T1 sequence (P41597 whole entry): as the sequence (P41597 whole entry) above
# T4 sequence (P41597 whole entry): as above
# T4 sequence (P35368 whole entry): as the sequence (P35368 whole entry) above
# T3 sequence (P51683 whole entry): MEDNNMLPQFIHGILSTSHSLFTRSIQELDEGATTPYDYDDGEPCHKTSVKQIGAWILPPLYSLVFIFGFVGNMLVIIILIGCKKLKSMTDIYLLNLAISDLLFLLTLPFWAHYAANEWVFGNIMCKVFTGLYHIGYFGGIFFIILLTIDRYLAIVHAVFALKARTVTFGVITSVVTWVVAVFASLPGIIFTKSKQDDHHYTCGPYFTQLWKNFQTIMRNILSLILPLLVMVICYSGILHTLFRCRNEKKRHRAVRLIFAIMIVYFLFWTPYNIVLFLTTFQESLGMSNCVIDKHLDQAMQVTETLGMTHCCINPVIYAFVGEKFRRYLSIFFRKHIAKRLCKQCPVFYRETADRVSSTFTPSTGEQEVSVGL
substance,measurement,setting,value
"CCL2: chemokine (C-C motif) ligand 2, cognate agonist of CCR2, CCR3 and CCR5","bottom plateau (BRET change), Gαi1 activation by CCL2","[1]; cells transfected with CCR2 alone, FIG. 1B",−0.03±0.001
same,EC50,"[1]; cells transfected with CCR2 alone, FIG. 1B, read-out: EC50 of CCL2, Gαi1 activation",3.31 nM
same,"bottom plateau, Gαi1 activation by human CCL2","[1]; human CCR2, FIG. 9A",−0.058±0.004
same,EC50,"[1]; human CCR2, FIG. 9A, read-out: EC50 of human CCL2, Gαi1 activation",1.4 ± 0.8 nM
same,"bottom plateau, CCL2-induced Gαi activation","[2]; CCL2 plus vehicle, FIG. 4C",−0.04±0.002
same,EC50,"[2]; CCL2 plus vehicle, FIG. 4C, read-out: EC50 of CCL2 to induce Gαi activation",0.9 ± 0.25 nM
same,"bottom plateau, CCL2-induced Gαi activation","[2]; CCL2 plus vehicle, FIG. 4D",−0.04±0.002
same,EC50,"[2]; CCL2 plus vehicle, FIG. 4D, read-out: EC50 of CCL2 to induce Gαi activation",1.3 ± 0.4 nM
same,"bottom plateau, CCL2-induced Gαi activation","[2]; CCL2 plus vehicle, FIG. 4F",−0.042±0.002
same,EC50,"[2]; CCL2 plus vehicle, FIG. 4F, read-out: EC50 of CCL2 to induce Gαi activation",1.5 ± 0.5 nM
same,"bottom plateau (BRET change), Gαi1 activation by CCL2","[2]; cells transfected with CCR2 plus α1b-AR, FIG. 1B",−0.037±0.001
same,EC50,"[2]; cells transfected with CCR2 plus α1b-AR, FIG. 1B, read-out: EC50 of CCL2, Gαi1 activation",0.94 ± 0.2 nM
same,"bottom plateau, Gαi1 activation by human CCL2",[3],−0.073±0.009
same,EC50,"[3]; read-out: EC50 of human CCL2, Gαi1 activation",3.5 ± 3.1 nM
same,% inhibition of cAMP production by CCL2,[4]; THP-1 cells incubated with non-targeting siRNA,66±5%
same,% inhibition of cAMP production by CCL2,[4]; THP-1 cells incubated with α1B-AR siRNA,46±4%
same,reduction of cAMP levels by CCL2,"[4]; forskolin-stimulated THP-1 cells, 100 nM CCL2, 15 min at 37° C., FIG. 2B",56±6%
same,inhibition of cAMP production by CCL2,[5],30±4%
same,EC50,[6],3.5 ± 0.9 nM
same,binding affinity of CCL2 for CCR2 relative to CCR3 and CCR5,[7],approximately 100 fold
same,IC50,[8],0.167 ± 0.023 nM
same,EC50,[9],3.7 ± 0.5 nM
same,"Top plateau, β-arrestin recruitment BRET",[9],0.06±0.001
same,EC50,"[10]; CCL2 alone, FIG. 5B",1.6 ± 1.3 nM
same,efficacy to induce β-arrestin recruitment to CCR2,[10]; agonist alone,43±5 fold change RLU
same,efficacy of CCL2 relative to phenylephrine to recruit β-arrestin to CCR2,[10]; higher,18 fold

# Reference: patent US20250213647A1, “CHEMOKINE RECEPTORS AND ALPHA1 ADRENERGIC RECEPTORS/VASOPRESSIN RECEPTORS 1A HETEROMERS AS DRUG TARGETS FOR DISEASE” (UNIVERSITY OF SOUTH FLORIDA, priority 2022, published 2025)
